Reference: publication PMC11317151, “DNA binding and bridging by human CtIP in the healthy and diseased states”

How the values were obtained:
[1] = biological target: T1, CtIP ΔC608 (human, UniProt Q99708 1-608); experiment: fluorescence anisotropy; no binding at 400 nM; Anisotropy: 20 mM Tris-Cl pH 8.0, 20 mM NaCl, 1 mM DTT, 5 nM HEX fork; EMSA: 20 mM Tris-Cl pH 8.0, 100 mM NaCl, 1 mM DTT, 0.1 mg/ml BSA, 5% glycerol, 2.5 nM Cy5 fork, room temperature; C-Trap reaction: 10 mM Tris-Cl pH 7.6, 20 mM NaCl, 1 mM DTT, 0.1 mg/ml BSA; conditions: protein: recombinant; tags: StrepII; chain copies: 4; label: 5'-HEX on strand 1; fork: 25 bp duplex, 20 nt 3' and 5' dT arms
T1 sequence (Q99708 1-608, stated change not applied): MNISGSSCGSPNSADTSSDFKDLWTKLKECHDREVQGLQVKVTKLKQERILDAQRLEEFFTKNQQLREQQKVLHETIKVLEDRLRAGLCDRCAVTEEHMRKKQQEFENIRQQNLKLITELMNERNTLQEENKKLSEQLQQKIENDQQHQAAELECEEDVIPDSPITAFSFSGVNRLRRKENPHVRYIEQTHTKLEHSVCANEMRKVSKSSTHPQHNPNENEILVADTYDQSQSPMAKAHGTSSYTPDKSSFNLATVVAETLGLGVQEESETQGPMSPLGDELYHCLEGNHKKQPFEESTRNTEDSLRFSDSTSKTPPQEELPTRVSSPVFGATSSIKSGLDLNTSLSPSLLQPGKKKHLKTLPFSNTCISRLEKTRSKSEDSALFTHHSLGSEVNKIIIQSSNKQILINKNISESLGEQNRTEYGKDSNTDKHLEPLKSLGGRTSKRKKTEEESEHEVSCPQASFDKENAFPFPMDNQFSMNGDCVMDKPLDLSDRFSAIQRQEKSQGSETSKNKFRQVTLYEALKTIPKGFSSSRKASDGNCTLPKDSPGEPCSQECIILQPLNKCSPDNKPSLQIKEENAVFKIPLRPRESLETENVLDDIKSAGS

[2] = biological target: CtIP ΔN541b (human, UniProt Q99708 542-897); experiment: fluorescence anisotropy; Anisotropy: 20 mM Tris-Cl pH 8.0, 20 mM NaCl, 1 mM DTT, 5 nM HEX fork; EMSA: 20 mM Tris-Cl pH 8.0, 100 mM NaCl, 1 mM DTT, 0.1 mg/ml BSA, 5% glycerol, 2.5 nM Cy5 fork, room temperature; C-Trap reaction: 10 mM Tris-Cl pH 7.6, 20 mM NaCl, 1 mM DTT, 0.1 mg/ml BSA; conditions: protein: recombinant; tags: StrepII; label: 5'-HEX on strand 1; fork: 25 bp duplex, 20 nt 3' and 5' dT arms
Chain of CtIP ΔN541b (Q99708 542-897, stated change not applied): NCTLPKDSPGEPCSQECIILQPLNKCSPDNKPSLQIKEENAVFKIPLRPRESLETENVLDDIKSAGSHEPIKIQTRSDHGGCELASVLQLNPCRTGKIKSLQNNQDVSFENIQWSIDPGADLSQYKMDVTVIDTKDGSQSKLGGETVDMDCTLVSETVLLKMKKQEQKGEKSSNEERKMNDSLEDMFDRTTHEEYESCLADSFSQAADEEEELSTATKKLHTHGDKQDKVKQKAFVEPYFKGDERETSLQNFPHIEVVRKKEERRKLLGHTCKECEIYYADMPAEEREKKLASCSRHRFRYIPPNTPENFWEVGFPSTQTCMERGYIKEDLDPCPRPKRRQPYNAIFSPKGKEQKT

[3] = biological target: CtIP ΔN500a (human, UniProt Q99708 501-897); experiment: as above; conditions: protein: recombinant; tags: StrepII; chain copies: 2; label: 5'-HEX on strand 1; fork: 25 bp duplex, 20 nt 3' and 5' dT arms
Chain of CtIP ΔN500a (Q99708 501-897, stated change not applied): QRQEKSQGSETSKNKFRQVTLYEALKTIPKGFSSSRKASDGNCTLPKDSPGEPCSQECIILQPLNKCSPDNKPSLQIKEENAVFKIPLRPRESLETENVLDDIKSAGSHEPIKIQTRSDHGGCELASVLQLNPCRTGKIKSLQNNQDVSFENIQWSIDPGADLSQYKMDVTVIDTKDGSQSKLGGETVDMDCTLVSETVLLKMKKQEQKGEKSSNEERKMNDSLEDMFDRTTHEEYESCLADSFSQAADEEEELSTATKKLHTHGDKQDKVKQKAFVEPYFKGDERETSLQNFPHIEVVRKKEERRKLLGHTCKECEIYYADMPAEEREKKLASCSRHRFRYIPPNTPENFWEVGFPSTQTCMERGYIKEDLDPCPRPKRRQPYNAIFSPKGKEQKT

[4] = biological target: CtIP R100W (human, UniProt Q99708 1-897, R100W); experiment: as above; conditions: protein: recombinant; tags: StrepII; chain copies: 4; label: 5'-HEX on strand 1; fork: 25 bp duplex, 20 nt 3' and 5' dT arms
Chain of CtIP R100W (Q99708 whole entry R100W): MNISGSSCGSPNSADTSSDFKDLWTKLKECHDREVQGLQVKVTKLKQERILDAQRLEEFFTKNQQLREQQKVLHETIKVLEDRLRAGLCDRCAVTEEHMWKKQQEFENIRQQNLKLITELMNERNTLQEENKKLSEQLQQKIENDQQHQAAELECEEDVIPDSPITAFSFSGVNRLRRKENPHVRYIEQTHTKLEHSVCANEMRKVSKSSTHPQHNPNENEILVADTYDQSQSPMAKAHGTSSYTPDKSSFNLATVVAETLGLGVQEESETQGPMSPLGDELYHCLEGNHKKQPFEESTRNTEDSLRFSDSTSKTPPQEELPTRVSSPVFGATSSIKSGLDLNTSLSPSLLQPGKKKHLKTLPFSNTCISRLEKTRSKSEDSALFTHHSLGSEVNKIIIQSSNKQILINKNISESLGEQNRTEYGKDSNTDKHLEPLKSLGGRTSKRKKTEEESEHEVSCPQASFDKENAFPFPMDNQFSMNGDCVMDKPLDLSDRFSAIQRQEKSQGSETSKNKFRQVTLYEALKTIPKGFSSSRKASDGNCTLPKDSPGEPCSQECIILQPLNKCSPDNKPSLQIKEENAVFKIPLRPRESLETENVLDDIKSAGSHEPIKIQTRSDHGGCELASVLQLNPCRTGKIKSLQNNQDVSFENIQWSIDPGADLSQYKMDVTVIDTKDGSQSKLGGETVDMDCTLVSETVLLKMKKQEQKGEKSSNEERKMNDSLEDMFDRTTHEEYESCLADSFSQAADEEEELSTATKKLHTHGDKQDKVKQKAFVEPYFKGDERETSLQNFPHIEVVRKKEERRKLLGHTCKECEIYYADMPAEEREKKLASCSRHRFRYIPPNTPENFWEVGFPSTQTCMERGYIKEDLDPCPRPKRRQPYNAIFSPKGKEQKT

[5] = biological target: CtIP ΔN541a (human, UniProt Q99708 542-897); experiment: as above; conditions: protein: recombinant; tags: StrepII; chain copies: 2; label: 5'-HEX on strand 1; fork: 25 bp duplex, 20 nt 3' and 5' dT arms
Chain of CtIP ΔN541a (Q99708 542-897, stated change not applied): as the sequence (Q99708 542-897, stated change not applied) above

[6] = biological target: T2, CtIP WT (human, UniProt Q99708 1-897); experiment: as above; conditions: protein: recombinant; tags: StrepII (cleavable); chain copies: 4; label: 5'-HEX on strand 1; fork: 25 bp duplex, 20 nt 3' and 5' dT arms
T2 sequence (Q99708 whole entry): as the sequence (Q99708 whole entry R100W) above, with W100R counted along it

[7] = biological target: CtIP ΔN500b (human, UniProt Q99708 501-897); experiment: as above; conditions: protein: recombinant; tags: StrepII; label: 5'-HEX on strand 1; fork: 25 bp duplex, 20 nt 3' and 5' dT arms
Chain of CtIP ΔN500b (Q99708 501-897, stated change not applied): as the sequence (Q99708 501-897, stated change not applied) above

[8] = biological target: T2, CtIP WT; experiment: fluorescence anisotropy; independent repeat; Anisotropy: 20 mM Tris-Cl pH 8.0, 20 mM NaCl, 1 mM DTT, 5 nM HEX fork; EMSA: 20 mM Tris-Cl pH 8.0, 100 mM NaCl, 1 mM DTT, 0.1 mg/ml BSA, 5% glycerol, 2.5 nM Cy5 fork, room temperature; C-Trap reaction: 10 mM Tris-Cl pH 7.6, 20 mM NaCl, 1 mM DTT, 0.1 mg/ml BSA; conditions: protein: recombinant; tags: StrepII (cleavable); chain copies: 4; label: 5'-HEX on strand 1; fork: 25 bp duplex, 20 nt 3' and 5' dT arms
[9] = biological target: MBP-CtIP-800-843 (human, UniProt Q99708 800-843); experiment: fluorescence-based binding assay; label not certain; weak binding equation; Anisotropy: 20 mM Tris-Cl pH 8.0, 20 mM NaCl, 1 mM DTT, 5 nM HEX fork; EMSA: 20 mM Tris-Cl pH 8.0, 100 mM NaCl, 1 mM DTT, 0.1 mg/ml BSA, 5% glycerol, 2.5 nM Cy5 fork, room temperature; C-Trap reaction: 10 mM Tris-Cl pH 7.6, 20 mM NaCl, 1 mM DTT, 0.1 mg/ml BSA; conditions: protein: recombinant; tags: MBP; label: 5'-HEX on strand 1; fork: 25 bp duplex, 20 nt 3' and 5' dT arms
Chain of MBP-CtIP-800-843 (Q99708 800-843): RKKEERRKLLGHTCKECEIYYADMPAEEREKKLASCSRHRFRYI

[10] = biological target: T1, CtIP ΔC608; experiment: EMSA; undetectable at highest concentration; Anisotropy: 20 mM Tris-Cl pH 8.0, 20 mM NaCl, 1 mM DTT, 5 nM HEX fork; EMSA: 20 mM Tris-Cl pH 8.0, 100 mM NaCl, 1 mM DTT, 0.1 mg/ml BSA, 5% glycerol, 2.5 nM Cy5 fork, room temperature; C-Trap reaction: 10 mM Tris-Cl pH 7.6, 20 mM NaCl, 1 mM DTT, 0.1 mg/ml BSA; conditions: protein: recombinant; tags: StrepII; chain copies: 4; label: 5'-Cy5 on strand 1; fork: 25 bp duplex, 20 nt 3' and 5' dT arms
[11] = biological target: CtIP ΔN790 (human, UniProt Q99708 791-897); experiment: fluorescence quenching; Results say Cy5-fork; Methods imply HEX (550 nm); Anisotropy: 20 mM Tris-Cl pH 8.0, 20 mM NaCl, 1 mM DTT, 5 nM HEX fork; EMSA: 20 mM Tris-Cl pH 8.0, 100 mM NaCl, 1 mM DTT, 0.1 mg/ml BSA, 5% glycerol, 2.5 nM Cy5 fork, room temperature; C-Trap reaction: 10 mM Tris-Cl pH 7.6, 20 mM NaCl, 1 mM DTT, 0.1 mg/ml BSA; conditions: protein: recombinant; tags: StrepII; label: 5'-Cy5 on strand 1; fork: 25 bp duplex, 20 nt 3' and 5' dT arms
Chain of CtIP ΔN790 (Q99708 791-897, stated change not applied): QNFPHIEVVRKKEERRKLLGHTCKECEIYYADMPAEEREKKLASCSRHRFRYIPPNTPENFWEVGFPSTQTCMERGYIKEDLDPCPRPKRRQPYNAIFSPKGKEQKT

Binder | binding result [1] | Kd [2] | Kd [3] | Kd [4] | Kd [5] | Kd [6] | Kd [7] | Kd [8] | Kd [9] | binding result [10] | Kd [11]
HEX fork (mixed) DNA 1: GCTTGCTAGGACGGATCGCTCGAGGTTTTTTTTTTTTTTTTTTTT DNA 2: TTTTTTTTTTTTTTTTTTTTCCTCGAGCGATCCGTCCTAGCAAGC | no binding | 960 nM | 45 nM | 115 nM | 210 nM | 66 nM | 33 nM | 37 nM | 520 nM | – | –
Cy5 fork (mixed) DNA 1: GCTTGCTAGGACGGATCGCTCGAGGTTTTTTTTTTTTTTTTTTTT DNA 2: TTTTTTTTTTTTTTTTTTTTCCTCGAGCGATCCGTCCTAGCAAGC | – | – | – | – | – | – | – | – | – | no binding | 270 nM
